This note sets out measurements from US20100292442A1.

Assay [1] deals with huIL-17RA-FLAG-polyHis (human) (UniProt Q96F46). Description: Luminex binning; bead mAb J holds IL-17RA.
Assay [2] shares this target. Description: Luminex binning; bead huIgG control (f15) + IL-17RA; self pair (boxed) [D00007 Fig. 8B].

For the substance huIgG (antibody), the normalized MFI in assay [1] was 42; in assay [2], 65.
